From patent US20170362301A1 (Janssen / Centocor, published 2017)

Legend:
[1] = target: T1, EGFR (form in the assay not stated) (human, UniProt P00533 25-645, limits assumed); experiment: ELISA, NEM conjugate 10 nM
[2] = target: T1, EGFR (form in the assay not stated); experiment: ELISA, NEM conjugate 500 nM
[3] = target: T1, EGFR (form in the assay not stated); experiment: ELISA, NEM conjugate 100 nM

Binder	binding ratio vs parent P54AR4-83v2 [1] [ratio]	binding ratio vs parent P54AR4-83v2 [2] [ratio]	binding ratio vs parent P54AR4-83v2 [3] [ratio]
P54AR4-83v2 R54C, NEM conjugate (designed binder, NEM on Cys 54, His-tagged) LPAPKNLVVSEVTEDSARLSWDDPWAFYESFLIQYQESEKVGEAIVLTVPGSECSYDLTGLKPGTEYTVSIYGVHNVYKDTNMRGLPLSAIFTT	0.89	0.93	1.01
P54AR4-83v2 V12C, NEM conjugate (designed binder, NEM on Cys 12, His-tagged) LPAPKNLVVSECTEDSARLSWDDPWAFYESFLIQYQESEKVGEAIVLTVPGSERSYDLTGLKPGTEYTVSIYGVHNVYKDTNMRGLPLSAIFTT	0.87	0.93	1.06
P54AR4-83v2 V74C, NEM conjugate (designed binder, NEM on Cys 74, His-tagged) LPAPKNLVVSEVTEDSARLSWDDPWAFYESFLIQYQESEKVGEAIVLTVPGSERSYDLTGLKPGTEYTVSIYGCHNVYKDTNMRGLPLSAIFTT	0.76	0.95	1.01
P54AR4-83v2 T81C, NEM conjugate (designed binder, NEM on Cys 81, His-tagged) LPAPKNLVVSEVTEDSARLSWDDPWAFYESFLIQYQESEKVGEAIVLTVPGSERSYDLTGLKPGTEYTVSIYGVHNVYKDCNMRGLPLSAIFTT	0.5	1.02	0.9
P54AR4-83v2 T48C, NEM conjugate (designed binder, NEM on Cys 48, His-tagged) LPAPKNLVVSEVTEDSARLSWDDPWAFYESFLIQYQESEKVGEAIVLCVPGSERSYDLTGLKPGTEYTVSIYGVHNVYKDTNMRGLPLSAIFTT	0.88	0.93	1
P54AR4-83v2 V41C, NEM conjugate (designed binder, NEM on Cys 41, His-tagged) LPAPKNLVVSEVTEDSARLSWDDPWAFYESFLIQYQESEKCGEAIVLTVPGSERSYDLTGLKPGTEYTVSIYGVHNVYKDTNMRGLPLSAIFTT	0.92	0.95	0.99
P54AR4-83v2 W25C, NEM conjugate (designed binder, NEM on Cys 25, His-tagged) LPAPKNLVVSEVTEDSARLSWDDPCAFYESFLIQYQESEKVGEAIVLTVPGSERSYDLTGLKPGTEYTVSIYGVHNVYKDTNMRGLPLSAIFTT	0.38	0.7	0.64
P54AR4-83v2 T59C, NEM conjugate (designed binder, NEM on Cys 59, His-tagged) LPAPKNLVVSEVTEDSARLSWDDPWAFYESFLIQYQESEKVGEAIVLTVPGSERSYDLCGLKPGTEYTVSIYGVHNVYKDTNMRGLPLSAIFTT	0.83	0.93	1.04
P54AR4-83v2 S70C, NEM conjugate (designed binder, NEM on Cys 70, His-tagged) LPAPKNLVVSEVTEDSARLSWDDPWAFYESFLIQYQESEKVGEAIVLTVPGSERSYDLTGLKPGTEYTVCIYGVHNVYKDTNMRGLPLSAIFTT	0.86	0.93	1.01
P54AR4-83v2 S38C, NEM conjugate (designed binder, NEM on Cys 38, His-tagged) LPAPKNLVVSEVTEDSARLSWDDPWAFYESFLIQYQECEKVGEAIVLTVPGSERSYDLTGLKPGTEYTVSIYGVHNVYKDTNMRGLPLSAIFTT	0.8	0.82	0.93
P54AR4-83v2 S52C, NEM conjugate (designed binder, NEM on Cys 52, His-tagged) LPAPKNLVVSEVTEDSARLSWDDPWAFYESFLIQYQESEKVGEAIVLTVPGCERSYDLTGLKPGTEYTVSIYGVHNVYKDTNMRGLPLSAIFTT	0.78	0.93	1.03
P54AR4-83v2 V9C, NEM conjugate (designed binder, NEM on Cys 9, His-tagged) LPAPKNLVCSEVTEDSARLSWDDPWAFYESFLIQYQESEKVGEAIVLTVPGSERSYDLTGLKPGTEYTVSIYGVHNVYKDTNMRGLPLSAIFTT	0.94	0.93	1.03
P54AR4-83v2 V77C, NEM conjugate (designed binder, NEM on Cys 77, His-tagged) LPAPKNLVVSEVTEDSARLSWDDPWAFYESFLIQYQESEKVGEAIVLTVPGSERSYDLTGLKPGTEYTVSIYGVHNCYKDTNMRGLPLSAIFTT	0.03	0.03	0
P54AR4-83v2 S55C, NEM conjugate (designed binder, NEM on Cys 55, His-tagged) LPAPKNLVVSEVTEDSARLSWDDPWAFYESFLIQYQESEKVGEAIVLTVPGSERCYDLTGLKPGTEYTVSIYGVHNVYKDTNMRGLPLSAIFTT	0	0.11	0
P54AR4-83v2 S89C, NEM conjugate (designed binder, NEM on Cys 89, His-tagged) LPAPKNLVVSEVTEDSARLSWDDPWAFYESFLIQYQESEKVGEAIVLTVPGSERSYDLTGLKPGTEYTVSIYGVHNVYKDTNMRGLPLCAIFTT	0.97	1.04	1.02
P54AR4-83v2 S30C, NEM conjugate (designed binder, NEM on Cys 30, His-tagged) LPAPKNLVVSEVTEDSARLSWDDPWAFYECFLIQYQESEKVGEAIVLTVPGSERSYDLTGLKPGTEYTVSIYGVHNVYKDTNMRGLPLSAIFTT	0.9	0.9	1.02
P54AR4-83v2 S16C, NEM conjugate (designed binder, NEM on Cys 16, His-tagged) LPAPKNLVVSEVTEDCARLSWDDPWAFYESFLIQYQESEKVGEAIVLTVPGSERSYDLTGLKPGTEYTVSIYGVHNVYKDTNMRGLPLSAIFTT	0.88	0.63	1.05
P54AR4-83v2 T68C, NEM conjugate (designed binder, NEM on Cys 68, His-tagged) LPAPKNLVVSEVTEDSARLSWDDPWAFYESFLIQYQESEKVGEAIVLTVPGSERSYDLTGLKPGTEYCVSIYGVHNVYKDTNMRGLPLSAIFTT	0.83	0.95	1.04
P54AR4-83v2 T13C, NEM conjugate (designed binder, NEM on Cys 13, His-tagged) LPAPKNLVVSEVCEDSARLSWDDPWAFYESFLIQYQESEKVGEAIVLTVPGSERSYDLTGLKPGTEYTVSIYGVHNVYKDTNMRGLPLSAIFTT	0.87	0.9	1.04
P54AR4-83v2 S20C, NEM conjugate (designed binder, NEM on Cys 20, His-tagged) LPAPKNLVVSEVTEDSARLCWDDPWAFYESFLIQYQESEKVGEAIVLTVPGSERSYDLTGLKPGTEYTVSIYGVHNVYKDTNMRGLPLSAIFTT	0.81	0.91	1.05
P54AR4-83v2 T93C, NEM conjugate (designed binder, NEM on Cys 93, His-tagged) LPAPKNLVVSEVTEDSARLSWDDPWAFYESFLIQYQESEKVGEAIVLTVPGSERSYDLTGLKPGTEYTVSIYGVHNVYKDTNMRGLPLSAIFCT	0.96	1.04	1.05
P54AR4-83v2 V49C, NEM conjugate (designed binder, NEM on Cys 49, His-tagged) LPAPKNLVVSEVTEDSARLSWDDPWAFYESFLIQYQESEKVGEAIVLTCPGSERSYDLTGLKPGTEYTVSIYGVHNVYKDTNMRGLPLSAIFTT	0.96	0.98	1.01
P54AR4-83v2 S10C, NEM conjugate (designed binder, NEM on Cys 10, His-tagged) LPAPKNLVVCEVTEDSARLSWDDPWAFYESFLIQYQESEKVGEAIVLTVPGSERSYDLTGLKPGTEYTVSIYGVHNVYKDTNMRGLPLSAIFTT	0.83	0.96	1.07
P54AR4-83v2 V8C, NEM conjugate (designed binder, NEM on Cys 8, His-tagged) LPAPKNLCVSEVTEDSARLSWDDPWAFYESFLIQYQESEKVGEAIVLTVPGSERSYDLTGLKPGTEYTVSIYGVHNVYKDTNMRGLPLSAIFTT	0.96	0.9	1.03
P54AR4-83v2 V46C, NEM conjugate (designed binder, NEM on Cys 46, His-tagged) LPAPKNLVVSEVTEDSARLSWDDPWAFYESFLIQYQESEKVGEAICLTVPGSERSYDLTGLKPGTEYTVSIYGVHNVYKDTNMRGLPLSAIFTT	0.61	0.9	1.01
P54AR4-83v2 R84C, NEM conjugate (designed binder, NEM on Cys 84, His-tagged) LPAPKNLVVSEVTEDSARLSWDDPWAFYESFLIQYQESEKVGEAIVLTVPGSERSYDLTGLKPGTEYTVSIYGVHNVYKDTNMCGLPLSAIFTT	0.91	0.98	1.04
